Assays:
Format in all cases: biochemical
Parameters in all cases: key: +: Detected; −: Not detected
[1] = Synthesis of N-caprinoylamino acid using purified acylamino acid synthetase, UPLC-MS detection; conditions: +ATP
Outline: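 Purified enzyme (50 μg) with 5 mM amino acid, 5 mM sodium caprate, 10 mM ATP, 10 mM MgCl2, 1 mM DTT in Tris-HCl pH 8.0, 24 h at 25° C; product detected by UPLC-MS (ESI-negative) as the N-caprinoyl amino acid mass signal.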

[2] = Synthesis of N-caprinoyl-amino acid derivative, N-caprinoyl-D-amino acid and N-caprinoyl-peptide using purified acylamino acid synthetase, UPLC-MS detection; conditions: +ATP
Outline: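 Purified enzyme (50 μg/mL) was incubated with 5 mM sodium caprate, 5 mM amino acid derivative, D-amino acid or peptide, 10 mM ATP, 10 mM MgCl2 and 1 mM DTT in 50 mM Tris-HCl, pH 8.0, for 24 h at 25 °C. After acidic methanol stop, UPLC-MS looked for the mass of the N-caprinoyl product.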

[3] = Synthesis of N-acylamino acids from various fatty acids using purified acylamino acid synthetase, UPLC-MS detection
Method: 0.1 mL of a reaction solution containing 50 mM Tris-HCl, 5 mM amino acid, 5 mM sodium fatty acid (3 mM of sodium palmitate or sodium stearate), 10 mM ATP, 10 mM MgCl2, 1 mM DTT, 200 μg/mL of the purified enzyme, pH 8.0 was shaken at 25° C. for 24 hours. When sodium palmitate or sodium stearate was used, methanol at a final concentration of 10% (v/v) was contained in the reaction solution. As the amino acid, L-Asp was used in AtGH3-6, OsGH3-8, AtGH3-5, AtGH3-12, L-Ile was used in AtJAR1, L-Ala was used in AtGH3-10, SsGH3, L-Glu was used in AtGH3-17, Gly was used in CfHP, L-Lys was used in PsIAAL, and L-Cys was used in PaHP. After completion of the reaction, 0.4 mL of the reaction stop solution (1% (v/v) phosphoric acid, 75% (v/v) methanol) was added, and the mixture was filtrated through the filter followed by being subjected to the UPLC-MS analysis to detect a signal of a molecular weight corresponding to the N-acylamino acid.
The condition for the UPLC-MS analysis is as follows.
Apparatus: ACQUITY UPLC (Waters)
Column: ACQUITY UPLC BEH C18 1.7 μm 2.1×100 mm Column (Waters), mobile phase A: 0.1% formic acid; mobile phase B: acetonitrile
• Flow rate: 0.6 mL/minute • Injection amount: 2 μL • Column temperature: 40° C. • Ionization method: ESI-negative
As a result of the UPLC-MS analysis, the signal of the molecular weight corresponding to the appropriate N-acylamino acid was confirmed in the reaction solution containing the enzyme in combination with sodium fatty acid shown in Table 7 below.

[4] = substrates GABA and sodium caprate
[5] = substrates Gly and sodium caprate
[6] = substrates L-Ala and sodium caprate
[7] = substrates L-Arg and sodium caprate
[8] = substrates L-Asn and sodium caprate
[9] = substrates L-Asp and sodium caprate
[10] = substrates L-Cys and sodium caprate
[11] = substrates L-Gln and sodium caprate
[12] = substrates L-Glu and sodium caprate
[13] = substrates L-His and sodium caprate
[14] = substrates L-Ile and sodium caprate
[15] = substrates L-Leu and sodium caprate
[16] = substrates L-Lys and sodium caprate
[17] = substrates L-Met and sodium caprate
[18] = substrates L-Phe and sodium caprate
[19] = substrates L-Pro and sodium caprate
[20] = substrates L-Ser and sodium caprate
[21] = substrates L-Thr and sodium caprate
[22] = substrates L-Trp and sodium caprate
[23] = substrates L-Tyr and sodium caprate
[24] = substrates L-Val and sodium caprate
[25] = substrates β-Ala and sodium caprate
[26] = substrates Carnosine and sodium caprate
[27] = substrates D-Ala and sodium caprate
[28] = substrates D-Asp and sodium caprate
[29] = substrates D-Cys and sodium caprate
[30] = substrates D-Glu and sodium caprate
[31] = substrates D-Ile and sodium caprate
[32] = substrates D-Lys and sodium caprate
[33] = substrates L-Asp-L-Phe and sodium caprate
[34] = substrates L-Gly-L-Gly and sodium caprate
[35] = substrates Sarcosine and sodium caprate
[36] = substrates Taurine and sodium caprate

B1: AtGH3-17: indole-3-acetic acid-amido synthetase GH3.17 from Arabidopsis thaliana, His-tagged (protein, listed as Arabidopsis thaliana)
chain: MIPSYDPNDTEAGLKLLEDLTTNAEAIQQQVLHQILSQNSGTQYLRAFLDGEADKNQQSFKNKVPVVNYDDVKPFIQRIADGESSDIVSAQPITELLTSSGTSAGKPKLMPSTAEELERKTFFYSMLVPIMNKYVDGLDEGKGMYLLFIKPEIKTPSGLMARPVLTSYYKSQHFRNRPFNKYNVYTSPDQTILCQDSKQSMYCQLLCGLVQRSHVLRVGAVFASAFLRAVKFLEDHYKELCADIRTGTVTSWITDSSCRDSVLSILNGPNQELADEIESECAEKSWEGILRRIWPKAKYVEVIVTGSMAQYIPTLEFYSGGLPLVSTMYASSECYFGINLNPLCDPADVSYTLLPNMAYFEFLPVDDKSHEEIHFATHSNTDDDDDALKEDLIVNLVNVEVGQYYEIVITTFTGLYRYRVGDILKVTGFHNKAPQFRFVQRRNVVLSIDTDKTSEEDLLNAVTQAKLNHLQHPSSLLLTEYTSYADTSSIPGHYVLFWELKPRHSNDPPKLDDKTMEDCCSEVEDCLDYVYRRCRNRDKSIGPLEIRVVSLGTFDSLMDFCVSQGSSLNQYKTPRCVKSGGALEILDSRVIGRFFSKRVPQWEPLGLDS
modifications: His-tag
notes: indole-3-acetic acid-amido synthetase GH3.17 from Arabidopsis thaliana, His-tagged
For B1, the “signal of molecular weight corresponding to N-caprinoyl amino acid” value (from here on “signal … to N-caprinoyl amino acid”) [1, 4] was “+”, the “signal … to N-caprinoyl amino acid” value [1, 5] was “+” and the “signal … to N-caprinoyl amino acid” value [1, 6] was “+”. For the same molecule, the “signal … to N-caprinoyl amino acid” value [1, 7] was “−”, the “signal … to N-caprinoyl amino acid” value [1, 8] was “+” and the “signal … to N-caprinoyl amino acid” value [1, 9] was “+”. For the same molecule, the “signal … to N-caprinoyl amino acid” value [1, 10] was “+”, the “signal … to N-caprinoyl amino acid” value [1, 11] was “+” and the “signal … to N-caprinoyl amino acid” value [1, 12] was “+”. For the same molecule, the “signal … to N-caprinoyl amino acid” value [1, 13] was “−”, the “signal … to N-caprinoyl amino acid” value [1, 14] was “+” and the “signal … to N-caprinoyl amino acid” value [1, 15] was “+”. For the same molecule, the “signal … to N-caprinoyl amino acid” value [1, 16] was “−”, the “signal … to N-caprinoyl amino acid” value [1, 17] was “+” and the “signal … to N-caprinoyl amino acid” value [1, 18] was “+”. The “signal … to N-caprinoyl amino acid” value [1, 19] was “−”, the “signal … to N-caprinoyl amino acid” value [1, 20] was “+” and the “signal … to N-caprinoyl amino acid” value [1, 21] was “+”. For the same molecule, the “signal … to N-caprinoyl amino acid” value [1, 22] was “+”, the “signal … to N-caprinoyl amino acid” value [1, 23] was “+” and the “signal … to N-caprinoyl amino acid” value [1, 24] was “+”. For the same molecule, the “signal … to N-caprinoyl amino acid” value [1, 25] was “+”, the “signal of molecular weight corresponding to N-caprinoyl compound” value (from here on “signal … to N-caprinoyl compound”) [2, 26] was “−” and the “signal … to N-caprinoyl compound” value [2, 27] was “−”. For the same molecule, the “signal … to N-caprinoyl compound” value [2, 28] was “+”, the “signal … to N-caprinoyl compound” value [2, 29] was “−” and the “signal … to N-caprinoyl compound” value [2, 30] was “+”. The “signal … to N-caprinoyl compound” value [2, 31] was “+”, the “signal … to N-caprinoyl compound” value [2, 32] was “−” and the “signal … to N-caprinoyl compound” value [2, 33] was “−”. For the same molecule, the “signal … to N-caprinoyl compound” value [2, 34] was “+”, the “signal … to N-caprinoyl compound” value [2, 35] was “−” and the “signal … to N-caprinoyl compound” value [2, 36] was “+”. For the same molecule, the “signal of molecular weight corresponding to N-acylamino acid” value (from here on “signal … to N-acylamino acid”) ([3]; substrates L-Cys and Capric acid) was “+”, the “signal … to N-acylamino acid” value ([3]; substrates L-Cys and Caproic acid) was “+” and the “signal … to N-acylamino acid” value ([3]; substrates L-Cys and Caprylic acid) was “+”. For the same molecule, the “signal … to N-acylamino acid” value ([3]; substrates L-Cys and Lauric acid) was “+”, the “signal … to N-acylamino acid” value ([3]; substrates L-Cys and Linoleic acid) was “−” and the “signal … to N-acylamino acid” value ([3]; substrates L-Cys and Palmitic acid) was “−”. For the same molecule, the “signal … to N-acylamino acid” value ([3]; substrates L-Cys and myristic acid) was “−”, the “signal … to N-acylamino acid” value ([3]; substrates L-Glu and Capric acid) was “+” and the “signal … to N-acylamino acid” value ([3]; substrates L-Glu and Caproic acid) was “+”. For the same molecule, the “signal … to N-acylamino acid” value ([3]; substrates L-Glu and Caprylic acid) was “+”, the “signal … to N-acylamino acid” value ([3]; substrates L-Glu and Lauric acid) was “+” and the “signal … to N-acylamino acid” value ([3]; substrates L-Glu and Linoleic acid) was “−”. For the same molecule, the “signal … to N-acylamino acid” value ([3]; substrates L-Glu and Palmitic acid) was “+” and the “signal … to N-acylamino acid” value ([3]; substrates L-Glu and myristic acid) was “+”.

B2: SsGH3: GH3 auxin-responsive promoter superfamily from Synechococcus sp. PCC 7335, His-tagged (protein)
chain: MVIHTIPKEILDSVASTGDVFAYHLLRSTGDIGETVLQYLLCLAAKVNLTGIEQDTYNADKVQEQLLNDILRSENKTLYGKKYNFDSLNVDSFRSSLPLTSYENYRESIDNVVQTGNYSQLVSEPITLFQESSGTTGKVKLIPRTNKFTLSAMRAFQAIEAVVQSHFQNPSSSSQRVLALVNTSPTKLTPTGIPRGTGTSGGLNDALQKFKLANYLIDIKYSSPSPVFLISNTEAAYYCHLLFGLLDSDINDISANFAATVLNAMKILEKAWTQLVEDIRQGKLYAGLDIDEATRRELEIRLRANPERARELQAYFEEGFEGILPRIWPSLSCIQCITTGSMQLYTDALRYYSGTVPFFSGSYGASEAWIGVNLDPEREPPAFVVTPHTAFFEFIPQDAIDQEQSATVCLTDLKPGESYEVVVTNMSGLYRYRVGDVVRCVGYHHKSPMIEFMYRRQTLLNLFGEKVSEDVIYSALSTTLREFGMAIQDIDYTCRHEFEGTPWRYVVYLEPADYEGCSSQHEMVQQRLDEVLCNLSDRYRQLREVGSIGSLKLKLVREGTFSGLKTRLLSQEHSDSQFKMPRLLTETALISFMESSL
modifications: His-tag; Synechococcus PCC 7335
notes: GH3 auxin-responsive promoter superfamily from Synechococcus sp; PCC 7335, His-tagged
With B2 the “signal … to N-caprinoyl amino acid” value [1, 4] was “−”, the “signal … to N-caprinoyl amino acid” value [1, 5] was “+” and the “signal … to N-caprinoyl amino acid” value [1, 6] was “+”. For the same molecule, the “signal … to N-caprinoyl amino acid” value [1, 7] was “−”, the “signal … to N-caprinoyl amino acid” value [1, 8] was “−” and the “signal … to N-caprinoyl amino acid” value [1, 9] was “+”. The “signal … to N-caprinoyl amino acid” value [1, 10] was “−”, the “signal … to N-caprinoyl amino acid” value [1, 11] was “−” and the “signal … to N-caprinoyl amino acid” value [1, 12] was “−”. The “signal … to N-caprinoyl amino acid” value [1, 13] was “−”, the “signal … to N-caprinoyl amino acid” value [1, 14] was “+” and the “signal … to N-caprinoyl amino acid” value [1, 15] was “+”. The “signal … to N-caprinoyl amino acid” value [1, 16] was “−”, the “signal … to N-caprinoyl amino acid” value [1, 17] was “+” and the “signal … to N-caprinoyl amino acid” value [1, 18] was “−”. The “signal … to N-caprinoyl amino acid” value [1, 19] was “−”, the “signal … to N-caprinoyl amino acid” value [1, 20] was “+” and the “signal … to N-caprinoyl amino acid” value [1, 21] was “−”. The “signal … to N-caprinoyl amino acid” value [1, 22] was “−”, the “signal … to N-caprinoyl amino acid” value [1, 23] was “−” and the “signal … to N-caprinoyl amino acid” value [1, 24] was “+”. The “signal … to N-caprinoyl amino acid” value [1, 25] was “+”, the “signal … to N-caprinoyl compound” value [2, 26] was “−” and the “signal … to N-caprinoyl compound” value [2, 27] was “+”. The “signal … to N-caprinoyl compound” value [2, 28] was “+”, the “signal … to N-caprinoyl compound” value [2, 29] was “−” and the “signal … to N-caprinoyl compound” value [2, 30] was “+”. For the same molecule, the “signal … to N-caprinoyl compound” value [2, 31] was “−”, the “signal … to N-caprinoyl compound” value [2, 32] was “−” and the “signal … to N-caprinoyl compound” value [2, 33] was “−”. For the same molecule, the “signal … to N-caprinoyl compound” value [2, 34] was “+”, the “signal … to N-caprinoyl compound” value [2, 35] was “−” and the “signal … to N-caprinoyl compound” value [2, 36] was “+”. For the same molecule, the “signal … to N-acylamino acid” value ([3]; substrates L-Ala and Capric acid) was “+”, the “signal … to N-acylamino acid” value ([3]; substrates L-Ala and Caproic acid) was “+” and the “signal … to N-acylamino acid” value ([3]; substrates L-Ala and Caprylic acid) was “+”. For the same molecule, the “signal … to N-acylamino acid” value ([3]; substrates L-Ala and Lauric acid) was “+”, the “signal … to N-acylamino acid” value ([3]; substrates L-Ala and Linoleic acid) was “−” and the “signal … to N-acylamino acid” value ([3]; substrates L-Ala and Palmitic acid) was “−”. For the same molecule, the “signal … to N-acylamino acid” value ([3]; substrates L-Ala and myristic acid) was “+”.
